Test results as given in publication PMC9541865, “Clinical Pharmacology of Insulin Aspart Biosimilar GP40071: Pharmacokinetic/Pharmacodynamic Comparability in Hyperinsulinemic Euglycemic Clamp Procedure” (Clinical Pharmacology in Drug Development, 2022).
Where two headings read alike, the source gives them in different places.

Legend:
healthy male volunteers [1] = test: Pharmacodynamics (glucose infusion rate) in hyperinsulinemic euglycemic clamp (HEC); format: in vivo, human; settings: N = 26, single s.c. 0.3 IU/kg, arithmetic mean (SD); for AUCGIR0‐t / GIRmax: 8-h HEC
Protocol: The PD effect of insulin aspart was evaluated using the manual euglycemic clamp technique, as described previously[7] with adaptations described below.
Before the clamp procedure. Subjects were hospitalized approximately 12 hours before each drug administration. After the baseline physical examination, vital signs measurements, alcohol breath test, and urine drug testing were performed to confirm compliance with the study restrictions. All participants were given a standardized light meal in the evening before the clamp. Subjects fasted for at least 10 hours before the dosing and remained fasted until the end of the clamp.
During the clamp procedure. The next morning HEC was performed.
Pharmacodynamics. As described above, blood glucose values determined every 5 minutes during HEC were used to measure and manually adjust GIR.

healthy male volunteers [2] = test: Safety and tolerability (adverse events) in HEC study; format: in vivo, human; settings: single s.c. 0.3 IU/kg, N = 26; for Number of adverse events (AEs): all transitory and mild, most probably related to the HEC procedure; for Tolerability of single dose: healthy male volunteers
Protocol: Safety evaluation. The safety and tolerability of both studied drugs were also assessed. Throughout the trial, adverse events (AEs) were monitored and all participants underwent physical examination, vital signs assessment, electrocardiogram (ECG) recording, and laboratory blood and urine testing.

[3] = human, in vivo, sc
Protocol: (§1) This was a phase 1, randomized, double‐blind, two‐center, two‐treatment, single‐dose, two‐period, crossover, 8‐hour HEC study in healthy subjects. The study was conducted simultaneously in 2018 at two clinical sites (Almazov National Medical Research Center, Saint Petersburg, Russia, and Endocrinology Research Centre, Moscow).
(§2) NovoRapid® Penfill® (Novo‐Asp), as a solution for injection (100 IU/mL), by NovoNordisk, Denmark was used as a reference drug. Both drugs were administered subcutaneously into the abdomen using a BD Micro‐Fine 0.5‐mL insulin syringe with an 8‐mm needle. In this study, the dose of insulin aspart was 0.3 IU/kg for each formulation.
(§3) The next morning HEC was performed. Subjects remained in a supine position for the entire procedure. The time of dosing of the investigated insulins was defined as a zero point. Plasma glucose levels were measured to confirm euglycemia state 60 and 30 minutes prior to the dosing. The target value for blood glucose concentrations during the clamp procedure was defined as 90 mg/100 mL and the acceptable glycemic range in this study was set as 80–100 mg/100 mL. After subcutaneous injection of the investigated insulin, intravenous 20% glucose infusion was started once the baseline plasma glucose level decreased by more than 5 mg/100 mL. The glucose infusion rate (GIR) was controlled and adjusted manually using an infusion pump (Infusomat fmS, B. Braun Melsungen AG, Germany) to maintain plasma glucose concentrations of 80–100 mg/100 mL. HEC lasted 8 hours, and during the entire procedure glycemia was measured using a glucose analyzer (StatStrip, Nova Biomedical, USA) and GIR was adjusted accordingly every 5 minutes. The GIR was documented throughout the procedure and was used to reflect the activity of insulin. Glucose infusion could be discontinued earlier if GIR equaled 0 mg/kg/min at three consecutive measurements 6 hours or more after dosing. Blood samples for PK assessment were obtained for 8 hours postdose.
(§4) Pharmacokinetics. During each HEC 21 samples (each 9 mL of venous blood) were collected from all participants at regular time intervals to assess the concentrations of insulin aspart and C‐peptide: 60, 30, 0 minutes predose and 10, 20, 30, 40, 50, 60, 75, 90, 105, 120, 135, 150, 165, 240, 300, 360, 420, 480 minutes postdose. To obtain plasma samples for the bioanalytical part the blood samples were centrifuged at 3000 rpm for 15 minutes, then the supernatant was transferred into clean tubes. Insulin determination in plasma was performed by a validated enzyme immunoassay (EIA) method using a Personal Lab (Adaltis S.r.l., Italy) analyzer. A Mercodia Iso‐Insulin ELISA kit (Mercodia, Sweden) was used to measure total endogenous human insulin and insulin aspart concentrations and then a Mercodia Insulin ELISA kit (Mercodia) was used to quantify specifically the endogenous human insulin concentration. […] The validated lower (LLOQ) and upper (ULOQ) levels of quantification for total insulin assay were 10.00 and 300.00 μIU/mL, and for human insulin assay they were 10.00 and 150.00 μIU/mL.

[4] = Pharmacokinetics of insulin aspart in plasma during hyperinsulinemic euglycemic clamp (HEC); settings: healthy male volunteers, N = 26, arithmetic mean (SD); for AUCins.0‐t: single s.c. 0.3 IU/kg into abdomen, ELISA double measurement; for AUCins.0‐t / Cins.max: 8-h HEC, plasma; for Cins.max: ELISA; for AUCins.0‐∞: extrapolated to infinity
Protocol: as §1, §2, §3, §4

Substance	AUCGIR0‐t (healthy male volunteers [1])	GIRmax (healthy male volunteers [1])	tGIRlag (onset of action) (healthy male volunteers [1])	tGIRmax (time to reach GIRmax) (healthy male volunteers [1])	Cases of hyperbilirubinemia (healthy male volunteers [2])	Cases of phlebitis (healthy male volunteers [2])	Number of adverse events (AEs) (healthy male volunteers [2])	Tolerability of single dose (healthy male volunteers [2])	t1/2 [3]	AUCins.0‐t [4]	Cins.max ([4]; single s.c. 0.3 IU/kg)	tmax ([4]; single s.c. 0.3 IU/kg)	AUCins.0‐∞ ([4]; single s.c. 0.3 IU/kg)	t1/2 ([4]; single s.c. 0.3 IU/kg)
insulin aspart [GP‐Asp]	43.48 (12.43) mg/kg × 60 min	11.21 (3.43) mg/kg/min	0.48 (0.21)	2.75 (0.94)	One	one	two	well tolerated	0.88 (0.31) h	750.86 (163.48) μLU/mL × h	286.95 (86.53) μLU/ml/mL	1.51 (0.53) h	776.90 (166.33) μLU/ml/mL × h	–
insulin aspart [Novo‐Asp]	42.81 (13.28) mg/kg × 60 min	10.65 (3.3) mg/kg/min	0.44 (0.18)	2.82 (1.02)	One	one	two	well tolerated	–	716.37 (199.60) μLU/mL × h	245.58 (72.70) μLU/ml/mL	1.37 (0.49) h	745.70 (209.72) μLU/ml/mL × h	0.93 (0.36) h
